Measured values published in patent publication US20050182242A1, “Global analysis of protein activities using proteome chips” (priority 2001, published 2005).

Experiments:
[1] = system: total yeast genomic DNA; assay: Yeast proteome chip probed with labeled genomic DNA; format: binding; details: Cy3-labeled genomic DNA, visual inspection
From the text: Protein-DNA and protein-RNA interactions are important for many fundamental biological functions such as transcription regulation, chromosome segregation and maintenance, and RNA transport and processing (Williamson, 2000, Nat. Struct. Biol. 7(10):834-7). To explore the possibility of using a proteome chip to identify proteins that bind to DNA or RNA molecules, total yeast genomic DNA was labeled using Cy3-CTP and Klenow fragment, and polyA^+ was labeled using a biotinylated psoralen-derivative (31). Each probe was incubated with a different proteome chip (FIG. 3A).
The protein-nucleic acid interaction was assayed as follows. The nucleic acid robes were labeled as described by Winzeler et al. (1999, Science 285:901). Blocked proteome chips were washed three to five times in PBS buffer, and the extra liquid on the glass surface was removed by tapping the slides vertically on a KIMWIPE™. 200 μl of labeled nuclei acid probe ([…] poly(dC/dG); 100-300 mM NaCl; 50-300 mM HEPES, pH 7.0-8.5; 10 mM MgCl2) was added to the proteome chip and immediately covered by a hydrophobic plastic cover slip (GRACE BIO-LABS™, USA). After trapped air bubbles were removed, the chip was incubated in a humidity chamber in the dark at room temperature (“RT”) for one hour. To remove the cover slip, the chip was immersed into large volume of PBS buffer(>50 ml), so that the slip would float away. The chip was then moved to a second PBS bath (>50 ml) and washed 3×5 min with shaking in the dark at RT. To completely remove the liquid on the chip, the chip was spun to dryness at 1500-2000 rpm for 5-10 min at RT.

[2] = system: PI(3)P liposomes; assay: Yeast proteome chip probed with PI(3)P liposomes; details: liposome binding signal on yeast proteome chip, Cy3-streptavidin detection
[3] = system: PI(4,5)P2 liposomes; assay: Yeast proteome chip probed with PI(4,5)P2 liposomes; details: liposome binding signal on yeast proteome chip, Cy3-streptavidin detection
[4] = system: PI(3,4)P2 liposomes; assay: Yeast proteome chip probed with PI(3,4)P2 liposomes; details: liposome binding signal on yeast proteome chip, Cy3-streptavidin detection
[5] = system: phosphatidylcholine (PC) liposomes; assay: Yeast proteome chip probed with PC liposomes; details: liposome binding signal on yeast proteome chip, Cy3-streptavidin detection
How it was run: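 Binding of arrayed yeast proteins to sonicated PC liposomes, with or without 5% (w/w) phosphoinositide, is scored by streptavidin fluorescence on the biotinylated lipid tracer.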

[6] = system: PI(4)P liposomes; assay: Yeast proteome chip probed with PI(4)P liposomes; details: liposome binding signal on yeast proteome chip, Cy3-streptavidin detection
[7] = system: PI(3,4,5)P3 liposomes; assay: Yeast proteome chip probed with PI(3,4,5)P3 liposomes; details: liposome binding signal on yeast proteome chip, Cy3-streptavidin detection

B1: Met30p: yeast protein with five WD-repeats that binds certain promoter regions (protein, UniProt P39014 1-640, looked up)
F-box protein MET30: MRRERQRMMSFEDKDKDDLDNSNSNNSSEMTDTAMMPPLKRLLITGSSDDLAQGSSGKKKMTMATRSPSSSPDLATNDSGTRVQPLPEYNFTKFCYRHNPDIQFSPTHTACYKQDLKRTQEINANIAKLPLQEQSDIHHIISKYSNSNDKIRKLILDGILSTSCFPQLSYISSLVTHMIKIDFISILPQELSLKILSYLDCQSLCNATRVCRKWQKLADDDRVWYHMCEQHIDRKCPNCGWGLPLLHMKRARIQQNSTGSSSNADIQTQTTRPWKVIYRERFKVESNWRKGHCRIQEFKGHMDGVLTLQFNYRLLFTGSYDSTIGIWDLFTGKLIRRLSGHSDGVKTLYFDDRKLITGSLDKTIRVWNYITGECISTYRGHSDSVLSVDSYQKVIVSGSADKTVKVWHVESRTCYTLRGHTEWVNCVKLHPKSFSCFSCSDDTTIRMWDIRTNSCLKVFRGHVGQVQKIIPLTIKDVENLATDNTSDGSSPQDDPTMTDGADESDTPSNEQETVLDENIPYPTHLLSCGLDNTIKLWDVKTGKCIRTQFGHVEGVWDIAADNFRIISGSHDGSIKVWDLQSGKCMHTFNGRRLQRETQHTQTQSLGDKVAPIACVCIGDSECFSGDEFGCVKMYKFDLND
binding of genomic DNA probe [1]: identified

B2: Cdc1p: yeast DNA-repair protein (protein, UniProt P40986 1-491, looked up)
Cell division control protein …: MVYRNRSKSVLSTHSKKSDDKAHYKSRSKKKSKSRSKKRLRIYWRYISIVWILWLGLISYYESVVVKRAMKKCQWSTWEDWPEGAESHRVGLFADPQIMDEYSYPGRPQIVNYFTRVIVDHYHRRNWKYVQYYLDPDSNFFLGDLFDGGRNWDDKQWIKEYTRFNQIFPKKPLRRTVMSLPGNHDIGFGDTVVESSLQRFSSYFGETSSSLDAGNHTFVLLDTISLSDKTNPNVSRVPRQFLDNFAMGSHPLPRILLTHVPLWRDPEQQTCGQLRESKEPFPIQKGHQYQTVIENDISQEILTKIQPEILFSGDDHDHCQISHSYPFQGKTKNAQEITVKSCAMNMGISRPAIQLLSLYNPSDLTMVNAGGEYASKTYQTELCYMPDPYKAIRMYLWGLLFSAAFIAYMHFFPKSFNNRVATIMNRVFTRPDGNTSDLPLPTSISKSKSKKSLTHSKYAVNDTRSIKQFLVNAIVLFVSVMPIFIYFYTVV
binding of genomic DNA probe [1]: identified

B3: xrs2p: yeast DNA-repair protein (protein, UniProt P33301 1-854, looked up)
DNA repair protein XRS2: MWVVRYQNTLEDGSISFISCCLQAFKTYSIGRSSKNPLIIKNDKSISRQHITFKWEINNSSDLKHSSLCLVNKGKLTSLNKKFMKVGETFTINASDVLKSTIIELGTTPIRIEFEWINEVWNIPPHLTQFRTMLSEYGISTEISINDIPANLMISDYPKSEDNSIRELYALVSTIPMKKSRFLMELCNTLLPTSKTNLKFDEMWNDMISNPEYNVFDFDPNILLSKFMRLNNIRVLTTIKSEPRLSSLLRTFNINLFAFDNIDSLYKYVDSLEASTEYLILTTTDKKENGKILCTIKTMLTSIIDGTLSAVINMKGASSRTLDNGKFDQISEGMSTILKTSRAPEVEASPVVSKKRKLNRRRVLPLDSLDFFAGGLSTKTLSENRSLTDAKRLNCGAESKTVISSPNIAEADEKHAPFLQNALKPTEDIGKKSGHSSPGAIIVSSPNLGTVNTSEDSLDKSLQSHKLPQPSLPEVAGIGSQTISSNSADYETAAVNSMDDAEVTKNFRVNHHQNIEQPSKNIRKLSNYSREISSPLQENCKSPVKELSIKEKSGTPHAFVEAIQETKNREVKRVKSTIVELKDEELSEEAINQLKNLAIVEPSNNLLRKSFDSEGNKTSRTTEKWENSLMEPEWHKRKNFKTFVKVRPKSKAHKEEGKNNTQSSDFIRNAAFLITRNYVPLKKYSKKDTTTKWGTEENEDMFALTEMERFGSNTFMSDNINSNTIQKRSQALNRFTNEDSSNEGEEDSFSFSRCSGTAASVQPLKNKIFITDEDDLGDIDDKSDRLNHRENNRNLFVVKEMNLRPNLSEECSKQSRHSRSATSRSRGSFGASNNGDGDDDDDDGPKFTFKRRKG
binding of genomic DNA probe [1]: identified

B4: PCL6: yeast GST-HisX6 fusion protein on proteome chip (protein, UniProt P40038 1-420, looked up)
PHO85 cyclin-6: MSIKGDSPSSTNASSSPKSTYSIQSDDKANLGSGNVDIRTDNSQQDSNNRRDIVVVTRVASEETLESQSSTSSMGIRPESSFNYEDASNQARVEMNNRVHGSNMNTINKYYPVRFPKNNERQLSDTNNLNEKVQGTHTVQSSTQEDKILDGDTSNSQVTPSLNIAEFPTDKLLKMLTALLTKIIKSNDRTAATNPSLTQEIENGRCLALSDNEKKYLSPVLGFRGKHVPQIGLDQYFQRIQKYCPTTNDVFLSLLVYFDRISKRCNSVTTTPKTNTAKHESPSNESSLDKANRGADKMSACNSNENNENDDSDDENTGVQRDSRAHPQMFVMDSHNIHRLIIAGITVSTKFLSDFFYSNSRYSRVGGISLQELNHLELQFLVLCDFELLISVNELQRYADLLYRFWNNAKAQSQALVTGM
modifications: GST-His6 fusion tag
notes: yeast GST-HisX6 fusion protein on proteome chip
PI(3)P [2]: 9.00
PI(4, 5)P2 [3]: 3.70
PI(3, 4)P2 [4]: 26.84
PC [5]: 31.70
PI(4)P [6]: 8.06
PI(3, 4, 5)P3 [7]: 26.89

B5: TFB3: yeast GST-HisX6 fusion protein on proteome chip (protein, UniProt Q03290 1-321, looked up)
RNA polymerase II …: MLMDEYEENKDMCPICKTDRYLSPDVKFLVNPECYHRICESCVDRIFSLGPAQCPYKGCDKILRKNKFKTQIFDDVEVEKEVDIRKRVFNVFNKTIDDFNGDLVEYNKYLEEVEDIIYKLDHGIDVAKTEEKLRTYEELNKQLIMNNLERSRTEIESFEQRQKFEKEMKLKKRLLERQIEEEERMNKEWTKKEIVNRLSTTTQDINETIEGVKNTVKLKKSSARRKLEELNRVLKNNPYFNSNVNVQNSRLKDAVPFTPFNGDREAHPRFTLKGSVYNDPFIKDLEHRKEFIASGFNTNYAYERVLTEAFMGLGCVISEEL
modifications: GST-His6 tag
notes: as for B4
PI(3)P [2]: 71.00
PI(4, 5)P2 [3]: 37.23
PI(3, 4)P2 [4]: 47.72
PC [5]: 37.86
PI(4)P [6]: 43.98
PI(3, 4, 5)P3 [7]: 27.45

B6: Spt2p: transcription factor, negative regulator of HO gene transcription (protein, UniProt P06843 2-333, looked up)
Protein SPT2: SFLSKLSQIRKSTTASKAQVQDPLPKKNDEEYSLLPKNYIRDEDPAVKRLKELRRQELLKNGALAKKSGVKRKRGTSSGSEKKKIERNDDDEGGLGIRFKRSIGASHAPLKPVVRKKPEPIKKMSFEELMKQAENNEKQPPKVKSSEPVTKERPHFNKPGFKSSKRPQKKASPGATLRGVSSGGNSIKSSDSPKPVKLNLPTNGFAQPNRRLKEKLESRKQKSRYQDDYDEEDNDMDDFIEDDEDEGYHSKSKHSNGPGYDRDEIWAMFNRGKKRSEYDYDELEDDDMEANEMEILEEEEMARKMARLEDKREEAWLKKHEEEKRRRKKGIR
binding of genomic DNA probe [1]: identified

B7: Rad51p: yeast DNA-repair protein (protein, UniProt P25454 1-400, looked up)
DNA repair protein RAD51: MSQVQEQHISESQLQYGNGSLMSTVPADLSQSVVDGNGNGSSEDIEATNGSGDGGGLQEQAEAQGEMEDEAYDEAALGSFVPIEKLQVNGITMADVKKLRESGLHTAEAVAYAPRKDLLEIKGISEAKADKLLNEAARLVPMGFVTAADFHMRRSELICLTTGSKNLDTLLGGGVETGSITELFGEFRTGKSQLCHTLAVTCQIPLDIGGGEGKCLYIDTEGTFRPVRLVSIAQRFGLDPDDALNNVAYARAYNADHQLRLLDAAAQMMSESRFSLIVVDSVMALYRTDFSGRGELSARQMHLAKFMRALQRLADQFGVAVVVTNQVVAQVDGGMAFNPDPKKPIGGNIMAHSSTTRLGFKKGKGCQRLCKVVDSPCLPEAECVFAIYEDGVGDPREEDE
binding of genomic DNA probe [1]: identified
